These results are taken from paper PMC5750214.

The target in assay [1] is mouse aortic AT1a receptor (mouse (endogenous in aorta)) (UniProt P29754). As to the kind of experiment: radioligand binding; saturation: [125I]-Ang II on the aortic membrane fraction of WT mice with HHcy (fed Hcy); non-specific binding subtracted.
The target is the same in assay [2]. Description: radioligand binding; saturation: [125I]-Ang II on the aortic membrane fraction of WT control mice; non-specific binding subtracted.

Chain of mouse aortic AT1a receptor (mouse (endogenous in aorta)) (P29754 whole entry): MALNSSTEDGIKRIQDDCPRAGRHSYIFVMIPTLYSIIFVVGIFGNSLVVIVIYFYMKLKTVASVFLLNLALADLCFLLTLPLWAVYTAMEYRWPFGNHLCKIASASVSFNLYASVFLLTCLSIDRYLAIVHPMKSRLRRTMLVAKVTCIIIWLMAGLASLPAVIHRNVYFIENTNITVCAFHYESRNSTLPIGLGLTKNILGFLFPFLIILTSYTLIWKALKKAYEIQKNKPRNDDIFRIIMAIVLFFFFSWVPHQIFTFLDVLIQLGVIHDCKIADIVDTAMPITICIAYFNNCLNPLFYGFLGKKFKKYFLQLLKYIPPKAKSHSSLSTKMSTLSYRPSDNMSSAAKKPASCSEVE

For orientation: Kd means the constant that tells how readily two partners part at equilibrium. Read a low Kd as a tighter complex. On to [125I]-Angiotensin II (peptide), for which the dissociation constant (Kd) worked out at 43.2 nM in assay [1] and 36.4 nM in assay [2].
